For orientation: IC50 means the point on the concentration scale where inhibition reaches its midpoint.

Data on 9 molecules can be found in patent US11202837B2, “Biological materials and uses thereof” (Antikor Biopharma Limited, priority 2014, dated 2021).

A value given as a limit tells only on which side of the number the result lay.

First the molecules themselves.
B1: scFv (TCT1067)-Acetate DAR 16 (conjugate)
scFv: SGSGGSGQVQLVQSGAEVKKPGESLKISCKGSGYSFTSYWIAWVRQMPGKGLEYMGLIYPGDSDTKYSPSFQGQVTISVDKSVSTAYLQWSSLKPSDSAVYFCARHDVGYCTDRTCAAWPEWLGVWGQGTLVTVSSGGGGSGGGGSGGGGSQSVLTQPPSVSAAPGQKVTISCSGSSSNIGNNYVSWYQQLPGTAPKLLIYGHTNRPAGVPDRFSGSKSGTSASLAISGFRSEDEADYYCASWDYTLSGWVFGGGTKLTVLMASMTGGQQMG
B2: scFv (TCT1067)-DM1-dPEG12 DAR 8 (conjugate)
scFv: B1 scFv
B3: scFv (TCT1067)-DM1-dPEG12 DAR 7 (conjugate)
scFv: B1 scFv
B4: scFv (TCT1067)-P5-C5 DAR 10.9 (conjugate)
scFv: B1 scFv
B5: scFv (TCT)-Acetate DAR 15 (conjugate)
scFv: SGSGGSGQVQLVQSGAEVKKPGESLKISCKGSGYSFTSYWIAWVRQMPGKGLEYMGLIYPGDSDTKYSPSFQGQVTISVDKSVSTAYLQWSSLKPSDSAVYFCARHDVGYCSSSNCAAWPEYFQHWGQGTLVTVSSGGGGSGGGGSGGGGSQSVLTQPPSVSAAPGQKVTISCSGSSSNIGNNYVSWYQQLPGTAPKLLIYGHTNRPAGVPDRFSGSKSGTSASLAISGFRSEDEADYYCAAWDDSLSGWVFGGGTKLTVLMASMTGGQQMG
B6: scFv (TCT)-MMAF-C5 DAR 6.8 (conjugate)
scFv: B5 scFv
B7: scFv (TCT)-MMAF-C5 1 DAR 5.6 (conjugate)
scFv: B5 scFv
B8: scFv (TCT1067)-MMAF-C5, DAR 6.4 (conjugate)
scFv: B1 scFv
B9: scFv (TCT)-MMAF-C5, DAR 6.6 (conjugate)
scFv: B5 scFv

The target of one series is HER2 (Homo sapiens, UniProt P04626). In words: Biacore SPR binding to immobilised HER2. The following applies: immobilised HER2. As for the experimental part: The binding affinity against immobilised HER2 target antigen was determined by Biacore SPR compared to the unmodified scFv on a Biacore T200. A standard amine-coupling method was used to prepare all Biacore surfaces (CM5 or CM3), as follows. Flow cells were activated individually by injecting a freshly mixed solution of 0.2M EDC in 0.05 M NHS at 30 μl/min. […] Excess NHS ester was deactivated using a 1 M ethanolamine solution. To measure the kinetics of the antibody and conjugate on the HER2 chip, a […] serial dilution (typically at 5, 2.5, 1.25, 0.6 μg/ml or lower for free antibody and 20, 10, 5, 2.5 μg/ml for the conjugates), was injected for 160 s at 30 μl/min, allowing a 900-s dissociation phase. The dissociation time was extended to 3600 s for the highest concentration. Surfaces were regenerated with 45 s injection of MgCl2 8M.
To evaluate binding ability, manual runs were performed at 30 μl/min with a 60 s injection of the desired compound followed by 60 s waiting time and a 45 s of regeneration at 10 μl/min using MgCl2 8M. All data was analysed using the software, BIAEvaluation.
For orientation: Surface plasmon resonance follows binding to a sensor surface in real time, without labels.
For B1, the association rate was 3.63e+06 M⁻¹ s⁻¹ and the dissociation rate is 7.64e-05 s⁻¹.

B2 returned an association rate of 13200 M⁻¹ s⁻¹ and a dissociation rate of 3.28e-05 s⁻¹.

B3 had an association rate of 19500 M⁻¹ s⁻¹ and a dissociation rate of 2.7e-05 s⁻¹.

Take B4: the dissociation rate is 7.13e-05 s⁻¹.

B5 returned an association rate of 5.93e+06 M⁻¹ s⁻¹ and a dissociation rate of 0.0171 s⁻¹.

In turn, B6 registered an association rate of 1.2e+06 M⁻¹ s⁻¹ and a dissociation rate of 0.0042 s⁻¹.

Consider B7, for which the association rate came out at 770000 M⁻¹ s⁻¹ and the dissociation rate worked out at 0.0042 s⁻¹.

Another series concerns SKBr3 cells. Put plainly: Cell killing assay (MTS), SKBr3 cells. It is filed as cell-based, human. The conditions noted are these: SKBr3 Cells (HER2+++), 96 hours, Table 46. The procedure:
(§1) SKBr3, human breast cancer cell line, high HER2 expression levels, up to 1,000,000 receptors per cell [Lazar G A, et al Proc Natl Acad Sci USA. […] When confluency was 70-80%, cells were washed with PBS (2×10 ml) and incubated with trypsin for 5-7 min. Complete media was added and the cells were resuspended by pipetting. The cells were recovered by centrifugation (2 min, 2000 rpm), the supernatant was discarded, and the cells were resuspended in complete DMEM (5 ml). The cells were then counted using a haemocytometer and diluted accordingly. They were plated at 4500 cells/well (200 μl) using attachment factor and incubated overnight at 37° C., 5% CO2 in a humidified atmosphere. U87 is a non-HER2 expressing glioblastoma cell line and was grown in a similar way, plated at 1000 cells/well.
[…] Cell viability was measured using the Promega Aqueous Cell-titre-96™ aqueous one solution cell proliferation kit according to manufacturer's instructions. Briefly, the media was removed and 100 μl of complete phenol red free media, pre-combined with MTS reagent, was added to the cells (20 μl of reagent per 100 μl of media). The plates were read on an ELISA plate reader at 490 nm after a 2 hr incubation in the dark (5% CO2, 37° C.).
(§2) The data (absorption units) were converted to % cell survival by using the untreated controls as the 100% cell survival and the Triton X-100 controls as the 100% cell death. The average absorption value for the latter was subtracted from all the rest of the data in order to get a suitable baseline. The averages were converted to survival and standard error values were obtained for each n value (as a % cell survival). […] Experiments were repeated at least 3 times for each compound tested and a set or an average of the data was plotted and fitted to obtain a dose response curve.
(§3) The cells were recovered by centrifugation (2 min, 2000 rpm), the supernatant was discarded, and the cells were resuspended in complete McCoy's 5A (5 ml). The cells were then counted using a haemocytometer and diluted accordingly. They were plated at 5000 cells/well (200 μl) using attachment factor and incubated overnight at 37° C., 5% CO2 in a humidified atmosphere. U87 is a non-HER2 expressing glioblastoma cell line [Zitron I M et al (2013) BMC Cancer 13:83] and was grown in a similar way, plated at 1000 cells/well (using DMEM media). BT474 is a HER2 expressing breast cancer cell line [Brockhoff G et al (2007) Cell Prolif 40:488-507] and was grown in a similar way, plated at 7500 cells/well (using RPMI media). NCI-N87 is a HER2 expressing gastric cancer cell line [Yamashita-Kashima Y et al (2013) Oncol. Rep 30:1087-93] and was grown in a similar way, plated at 7500 cells/well (using RPMI media).
[…] Cell viability was measured using the Promega Aqueous Cell-titre-96™ aqueous one solution cell proliferation kit (MTS reagent) according to manufacturer's instructions. Briefly, the media was removed and 100 μl of complete phenol red free media, pre-combined with MTS reagent, was added to the cells (20 μl of reagent per 100 μl of media). The plates were read on an ELISA plate reader at 490 nm after a 2 hr incubation in the dark (5% CO2, 37° C.).
(§4) The data (absorption units) were converted to % cell survival by using the untreated controls as the 100% cell survival and the Triton X-100 controls as the 100% cell death. The average absorption value for the latter was subtracted from all the rest of the data in order to get a suitable baseline. The averages were converted to survival and standard error values were obtained for each n value (as a % cell survival).
For the molecule B8, the “IC50 μg/ml” value came out at 0.007 µg/mL.

B9: the “IC50 μg/ml” value is 0.087 µg/mL.

The same series, now with this note: SKBr3 Cells (HER2+++), 96 hours, Table 46; read-out: IC50.
In the case of B8, the IC50 worked out at 0.25 nM.

With B9, the IC50 amounted to 0.0031 nM.

The test system of a further series is U87 cells. Put plainly: Cell killing assay (MTS), U87 cells. It is filed as cell-based. The conditions noted are these: U87 Cells (HER2−), 96 hours, Table 46. As for the experimental part:
as §1
The cells were exposed to the various ADCs diluted in complete media for 96 hours at 37° C., 5% CO2 in a humidified atmosphere. Cell viability was measured using the Promega Aqueous Cell-titre-96™ aqueous one solution cell proliferation kit according to manufacturer's instructions. Briefly, the media was removed and 100 μl of complete phenol red free media, pre-combined with MTS reagent, was added to the cells (20 μl of reagent per 100 μl of media). The plates were read on an ELISA plate reader at 490 nm after a 2 hr incubation in the dark (5% CO2, 37° C.).
as §2, §3
(§5) The cells were exposed to the various ADCs diluted in complete media for 96 hours at 37° C., 5% CO2 in a humidified atmosphere. Cell viability was measured using the Promega Aqueous Cell-titre-96™ aqueous one solution cell proliferation kit (MTS reagent) according to manufacturer's instructions. Briefly, the media was removed and 100 μl of complete phenol red free media, pre-combined with MTS reagent, was added to the cells (20 μl of reagent per 100 μl of media). The plates were read on an ELISA plate reader at 490 nm after a 2 hr incubation in the dark (5% CO2, 37° C.).
as §4
As for B8, the “IC50 μg/ml” value was above 5 µg/mL.

On to B9, for which the “IC50 μg/ml” value was above 5 µg/mL.

The subject of a further series is BT474 cells. Put plainly: Cell killing assay (MTS), BT474 cells. In kind it is cell-based, human. The following applies: BT474 Cells (HER2++), 96 hours, Table 46. The procedure:
as §3, §5
The data (absorption units) were converted to % cell survival by using the untreated controls as the 100% cell survival and the Triton X-100 controls as the 100% cell death. The average absorption value for the latter was subtracted from all the rest of the data in order to get a suitable baseline. The averages were converted to survival and standard error values were obtained for each n value (as a % cell survival). […] Experiments were repeated at least 3 times for each compound tested and a set or an average of the data was plotted and fitted to obtain a dose-response curve.
As for B8, the “IC50 μg/ml” value turned out to be 0.008 µg/mL.

Consider B9, for which the “IC50 μg/ml” value came to 0.2 µg/mL.

The series is the same for the next values; noted with them: BT474 Cells (HER2++), 96 hours, Table 46; read-out: IC50.
Turning to B8, the IC50 came out at 0.286 nM.

Regarding B9, the IC50 amounted to 0.00714 nM.

System in the next series: not listed separately
In words: Aggregation by HPLC size-exclusion chromatography. It is filed as physicochemical.
Details: not given
The procedure: Aggregation can be tested by analytical size-exclusion HPLC measuring the percentage of high molecular weight material compared to the conjugate eluting at a retention time characteristic of a monomeric conjugate.
Typically, 20 μg of protein was injected for analytical runs and 300 μg for semi-preparative runs.
As to B2, the “aggregation by HPLC-SEC” value was determined as 4% aggregates.

As to B3, the “aggregation by HPLC-SEC” value is listed as 1% aggregates.

For the molecule B6, the “aggregation by HPLC-SEC” value was determined as 17%.

The series is the same for the next values; noted with them: purified or analysed conjugate vs unconjugated antibody.
As to B1, the “aggregation by HPLC-SEC (in words)” value is on record as “no aggregation”.

B4: the “aggregation by HPLC-SEC (in words)” value is listed as “no aggregation”.

Take B5: the “aggregation by HPLC-SEC (in words)” value is reported as “no aggregation”.

In the case of B6, the “aggregation by HPLC-SEC (in words)” value is given as “no aggregation”.

Take B7: the “aggregation by HPLC-SEC (in words)” value is given as “no aggregation”.
